Source: PMC5551578

Biological target: HIV-1 92BR-gp120 (HIV-1 (92BR))
Assay: BLI

B1: gp120-Ab8 (antibody, V domains shown)
VH: EVQLVESGGGVVQPGRSLRLSCAASGFTFSFYGMHWVRQAPGKGLEWVAVISYDGRIKSYADSVKGRFTTSRDNSKNTLYLEMSSLRVEDTAVYYCAKSLVGATLLGPFGPWGQGSLVTVSS
VL: SYELTQPPSVSVAPGQTARITCGGDKIGGERVHWYQQKPGQAPVLVVYDDRDRPSGIPERFSGSNSGNTATLTISRVEAGDEADYYCQVRDSTSDHYVFGSGTKVTVL
- Kd: 89.3 nM
